Measurements taken from PMC5986797, “Laminin heparin-binding peptides bind to several growth factors and enhance diabetic wound healing” (Nature Communications, 2018).

B1: LAMA4_826–1816: laminin alpha 4 LG domain recombinant protein (R&D Systems) (protein)
chain: RSVASKIQVSMMFDGQSAVEVHSRTSMDDLKAFTSLSLYMKPPVKRPELTETADQFILYLGSKNAKKEYMGLAIKNDNLVYVYNLGTKDVEIPLDSKPVSSWPAYFSIVKIERVGKHGKVFLTVPSLSSTAEEKFIKKGEFSGDDSLLDLDPEDTVFYVGGVPSNFKLPTSLNLPGFVGCLELATLNNDVISLYNFKHIYNMDPSTSVPCARDKLAFTQSRAASYFFDGSGYAVVRDITRRGKFGQVTRFDIEVRTPADNGLILLMVNGSMFFRLEMRNGYLHVFYDFGFSGGPVHLEDTLKKAQINDAKYHEISIIYHNDKKMILVVDRRHVKSMDNEKMKIPFTDIYIGGAPPEILQSRALRAHLPLDINFRGCMKGFQFQKKDFNLLEQTETLGVGYGCPEDSLISRRAYFNGQSFIASIQKISFFDGFEGGFNFRTLQPNGLLFYYASGSDVFSISLDNGTVIMDVKGIKVQSVDKQYNDGLSHFVISSVSPTRYELIVDKSRVGSKNPTKGKIEQTQASEKKFYFGGSPISAQYANFTGCISNAYFTRVDRDVEVEDFQRYTEKVHTSLYECPIESSPLFLLHKKGKNLSKPKASQNKKGGKSKDAPSWDPVALKLPERNTPRNSHCHLSNSPRAIEHAYQYGGTANSRQEFEHLKGDFGAKSQFSIRLRTRSSHGMIFYVSDQEENDFMTLFLAHGRLVYMFNVGHKKLKIRSQEKYNDGLWHDVIFIRERSSGRLVIDGLRVLEESLPPTEATWKIKGPIYLGGVAPGKAVKNVQINSIYSFSGCLSNLQLNGASITSASQTFSVTPCFEGPMETGTYFSTEGGYVVLDESFNIGLKFEIAFEVRPRSSSGTLVHGHSVNGEYLNVHMKNGQVIVKVNNGIRDFSTSVTPKQSLCDGRWHRITVIRDSNVVQLDVDSEVNHVVGPLNPKPIDHREPVFVGGVPESLLTPRLAPSKPFTGCIRHFVIDGHPVSFSKAALVSGAVS
B2: LAMA3_2928–3150: recombinant human LAMA3 LG domain Ser2928-Cys3150 (linker domain and LG4 domain), 6 His, HEK-293F (protein)
chain: SLNKPPFLMLLKGSTRFNKTKTFRINQLLQDTPVASPRSVKVWQDACSPLPKTQANHGALQFGDIPTSHLLFKLPQELLKPRSQFAVDMQTTSSRGLVFHTGTKNSFMALYLSKGRLVFALGTDGKKLRIKSKEKCNDGKWHTVVFGHDGEKGRLVVDGLRAREGSLPGNSTISIRAPVYLGSPPSGKPKSLPTNSFVGCLKNFQLDSKPLYTPSSSFGVSSC
modifications: left off: His6, N-terminal, state not stated
notes: recombinant human LAMA3 LG domain Ser2928-Cys3150 (linker domain and LG4 domain), 6 His, HEK-293F
B3: PlGF-2: placental growth factor (PlGF)-2, PeproTech (protein)
chain: LPAVPPQQWALSAGNGSSEVEVVPFQEVWGRSYCRALERLVDVVSEYPSEVEHMFSPSCVSLLRCTGCCGDENLHCVPVETANVTMQLLKIRSGDRPSYVELTFSQHVRCECRPLREKMKPERRRPKGRGKRRREKQRPTDCHLCGDAVPRR
B4: FGF-6: fibroblast growth factor, PeproTech (protein)
chain: SPAGTRANNTLLDSRGWGTLLSRSRAGLAGEIAGVNWESGYLVGIKRQRRLYCNVGIGFHLQVLPDGRISGTHEENPYSLLEISTVERGVVSLFGVRSALFVAMNSKGRLYATPSFQEECKFRETLLPNNYNAYESDLYQGTYIALSKYGRVKRGSKVSPIMTVTHFLPRI
B5: PDGF-CC: platelet-derived growth factor, PeproTech (protein)
chain: VVDLNLLTEEVRLYSCTPRNFSVSIREELKRTDTIFWPGCLLVKRCGGNCACCLHNCNECQCVPSKVTKKYHEVLQLRPKTGVRGLHKSLTDVALEHHEECDCVCRGSTGG
B6: FGF-7: fibroblast growth factor, PeproTech (protein)
chain: CNDMTPEQMATNVNCSSPERHTRSYDYMEGGDIRVRRLFCRTQWYLRIDKRGKVKGTQEMKNNYNIMEIRTVAVGIVAIKGVESEFYLAMNKEGKLYAKKECNEDCNFKELILENHYNTYASAKWTHNGGEMFVALNQKGIPVRGKKTKKEQKTAHFLPMAIT
B7: PlGF-1: placental growth factor, PeproTech (protein)
chain: LPAVPPQQWALSAGNGSSEVEVVPFQEVWGRSYCRALERLVDVVSEYPSEVEHMFSPSCVSLLRCTGCCGDENLHCVPVETANVTMQLLKIRSGDRPSYVELTFSQHVRCECRPLREKMKPERCGDAVPRR
B8: FGF-10: fibroblast growth factor, PeproTech (protein)
chain: QALGQDMVSPEATNSSSSSFSSPSSAGRHVRSYNHLQGDVRWRKLFSFTKYFLKIEKNGKVSGTKKENCPYSILEITSVEIGVVAVKAINSNYYLAMNKKGKLYGSKEFNNDCKLKERIEENGYNTYASFNWQHNGRQMYVALNGKGAPRRGQKTRRKNTSAHFLPMVVHS
B9: BDNF: brain-derived neurotrophic factor, PeproTech (protein, UniProt P23560 19-247, looked up)
Neurotrophic factor BDNF …: APMKEANIRGQGGLAYPGVRTHGTLESVNGPKAGSRGLTSLADTFEHVIEELLDEDQKVRPNEENNKDADLYTSRVMLSSQVPLEPPLLFLLEEYKNYLDAANMSMRVRRHSDPARRGELSVCDSISEWVTAADKKTAVDMSGGTVTVLEKVPVSKGQLKQYFYETKCNPMGYTKEGCRGIDKRHWNSQCRTTQSYVRALTMDSKKRIGWRFIRIDTSCVCTLTIKRGR
B10: BMP-3: bone morphogenetic protein, PeproTech (protein)
chain: QWIEPRNCARRYLKVDFADIGWSEWIISPKSFDAYYCSGACQFPMPKSLKPSNHATIQSIVRAVGVVPGIPEPCCVPEKMSSLSILFFDENKNVVLKVYPNMTVESCACR
B11: BMP-7: bone morphogenetic protein, PeproTech, produced in eukaryotic cells (protein)
chain: STGSKQRSQNRSKTPKNQEALRMANVAENSSSDQRQACKKHELYVSFRDLGWQDWIIAPEGYAAYYCEGECAFPLNSYMNATNHAIVQTLVHFINPETVPKPCCAPTQLNAISVLYFDDSSNVILKKYRNMVVRACGCH

Tested on: FGF-2
Test: ELISA: FGF-2 binding to laminin LG domain / laminin peptide
Design: species or system human
Conditions: 1 µg/mL LG domain coated; 1 μg/mL GF; vs BSA-coated wells; n = 4
Description: (§1) ELISA tests were performed as described above. In brief, ELISA plates were coated with 1 μg/mL of laminin alpha 3 LG domain recombinant protein, laminin alpha 4 LG domain recombinant protein (R&D Systems), laminin alpha 5 LG domain recombinant protein (LD BioPharma), or laminin peptide (sequences are described in Supplementary Table 1, chemically synthesized by Genscript) in PBS for 2 h at 37 °C. A concentration of 1 μg/mL of BSA served as non-binding protein control. After blocking with 2% BSA PBS-0.05% Tween 20 (PBS-T) solution, 1 μg/mL of the recombinant human proteins (VEGF-A121, VEGF-A165, PlGF-1, PlGF-2, PDGF-BB, or FGF-2) or 10 μg/mL of biotinylated heparin (Sigma-Aldrich) were added. Bound GF was detected with biotinylated antibodies for human VEGF-A, PlGF, PDGF-BB (R&D Systems, Catalog No. DY220, 1:180 dilution), or FGF-2 (R&D Systems). The antibodies were detected by streptavidin-HRP (R&D Systems).

binding to FGF-2 (ELISA), recombinant LG domains | Molecule
bound | B1
bound | B2

Tested on: recombinant human laminin isoforms (–111, –211, –332, –411, –421, –511, and –521)
Test: ELISA: binding of full-length laminin isoforms to absorbed GFs and CXCL chemokines
Conditions: 50 nM GF coated, 10 nM laminin; signals greater than 0.1 indicate binding; n = 4
Description: Ninety-six-well ELISA plates (med-binding, Greiner Bio-One) were coated with 50 nM GFs in 100 µL/well of phosphate-buffered saline (PBS) at 37 °C for more than 2 h. After blocking with 2% BSA solution containing PBS and 0.05% Tween 20 (PBS-T), 10 nM recombinant human laminin isoforms (–111, –211, –332, –411, –421, –511, and –521) (>95% purity tested by SDS-PAGE, BioLamina) in 100 µL/well PBS were added. Bound laminin was detected with 100 µL/well rabbit anti-human LAMC1 polyclonal antibody (Assay Biotech, Catalog No. C13072, 1:1000 dilution in PBS) or rabbit anti-human LAMA3 polyclonal antibody (Assay Biotech, Catalog No. C13066, 1:1000 dilution in PBS). After incubation with biotinylated anti-rabbit antibody for 60 min at room temperature (RT), HRP-conjugated streptavidin (Jackson ImmunoResearch) was added. After 60 min of incubation at RT, 50 μL of TMB substrate (Sigma-Aldrich) was added. The reactions were stopped by adding 25 μL of 2 N H2SO4. Subsequently, the absorbance at 450 nm was measured with a reference of 570 nm.

binding to all tested laminin isoforms (ELISA, A450 nm) | Molecule
bound | B3
did not | B4
bound | B5
bound | B6
did not show binding | B7
bound | B8
strong binding | B9
showed binding | B10
not | B11

Tested on: PlGF-2
Test: ELISA: PlGF-2 binding to laminin LG domain / laminin peptide
Design: species or system human
Conditions: 1 µg/mL LG domain coated; 1 μg/mL GF; vs BSA-coated wells; n = 4
Description: as §1

binding to PlGF-2 (ELISA), recombinant LG domains | Molecule
bound | B1
bound | B2

Tested on: VEGF-A121
Test: ELISA: VEGF-A121 binding to laminin LG domain / laminin peptide
Design: species or system human
Conditions: 1 µg/mL LG domain coated; 1 μg/mL GF; vs BSA-coated wells; n = 4
Description: as §1

binding to VEGF-A121 (ELISA), recombinant LG domains | Molecule
did not show any binding | B1
did not show any binding | B2

Tested on: PDGF-BB
Test: ELISA: PDGF-BB binding to laminin LG domain / laminin peptide
Design: species or system human
Conditions: 1 µg/mL LG domain coated; 1 μg/mL GF; vs BSA-coated wells; n = 4
Description: as §1

binding to PDGF-BB (ELISA), recombinant LG domains | Molecule
bound | B1
bound | B2

Tested on: PlGF-1
Test: ELISA: PlGF-1 binding to laminin LG domain / laminin peptide
Design: species or system human
Conditions: 1 µg/mL LG domain coated; 1 μg/mL GF; vs BSA-coated wells; n = 4
Description: as §1

binding to PlGF-1 (ELISA), recombinant LG domains | Molecule
did not show any binding | B1
did not show any binding | B2

Tested on: VEGF-A165
Test: ELISA: VEGF-A165 binding to laminin LG domain / laminin peptide
Design: species or system human
Conditions: 1 µg/mL LG domain coated; 1 μg/mL GF; vs BSA-coated wells; n = 4
Description: as §1, with “ELISA plates were coated with 1 μg/mL of laminin alpha 3 LG domain” left out

binding to VEGF-A165 (ELISA), recombinant LG domains | Molecule
bound | B1
bound | B2
